This note sets out measurements from patent US20210113484A1 (NATIONAL UNIVERSITY OF SINGAPORE, published 2021).

Numbering of substitutions follows the chain as printed. Numbers in names are those of the source.

Data set [1] concerns h6NE-GFPuvTEV (h6NE-GFPuv fusion with a TEV protease site between the AfFtn subunit and GFPuv) [GFP: P42212].
Data set [2] has as its target T1, AfFtn with truncated C-terminus and E65K, E128K, E131K, D138A, net positive interior [AfFtnΔC(+)] (Archaeoglobus fulgidus).
T1 construct: 24 copies in the empty shell; about 23 copies where it surrounds one fusion subunit; also called tES(+)
T1 chain: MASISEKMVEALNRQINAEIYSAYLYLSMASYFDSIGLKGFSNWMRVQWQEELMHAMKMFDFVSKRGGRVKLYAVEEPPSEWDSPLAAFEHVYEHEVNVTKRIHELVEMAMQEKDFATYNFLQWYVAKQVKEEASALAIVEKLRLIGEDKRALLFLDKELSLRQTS
As to the kind of experiment: gel densitometry of purified protein fractions.

In data set [3] the target is T2, native rLuc (un-fused Renilla luciferase) (Renilla reniformis, UniProt P27652 1-311).
T2 sequence (looked up): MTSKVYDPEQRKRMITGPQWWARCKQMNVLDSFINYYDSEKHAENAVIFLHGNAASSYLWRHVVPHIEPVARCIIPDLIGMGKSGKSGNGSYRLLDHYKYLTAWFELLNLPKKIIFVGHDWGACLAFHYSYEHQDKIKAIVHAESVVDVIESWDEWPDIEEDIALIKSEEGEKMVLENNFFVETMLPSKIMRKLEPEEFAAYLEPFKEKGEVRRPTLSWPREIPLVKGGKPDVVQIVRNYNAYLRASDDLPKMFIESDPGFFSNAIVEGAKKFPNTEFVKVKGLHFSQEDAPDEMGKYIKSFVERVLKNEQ
As to the kind of experiment: cell-free encapsulation by pH shift 5.8 to 8; rLuc luminescence. As for the experimental part: The TMB substrate was added for color development and the reaction stopped using 2M H₂SO₄ after 5 mins. Absorbance was recorded at 450 nm. All luciferase reactions took place at ambient temperature (24-27° C.) in a 96-well plate with white interior and were performed at least in triplicates. Following chromatographic purification, equimolar concentrations (500 nM) of purified h6NE-luciferase(+), h6NEluciferase(−), and h6NE-luciferase(+/−) were evaluated for luciferase activity using D-luciferin potassium salt as a substrate. The reaction was initiated by injecting 50μl buffer containing D-luciferin potassium salt (final concentration 200 μM), 50 mM Tris-Cl pH 7.5, 10 mM MgCl₂, 2 mM EDTA, 100 μM ATP, 0.1% BSA, to a 50μl protein sample. Purified tES(+)F116H/tES-rLuc, tES-rLuc, and rLuc were evaluated using Renilla luciferase kit (Promega) with some modifications in the manufacturer's instructions. […] The signal was integrated for 1 min with a 2 s delay and luminescence was measured in Relative Light Units (RLU). […] The steady-state initial velocities, VO, (RLU/sec) for h6NE-luciferase(+/−) and recombinant luciferase were determined by initiating the reaction with different concentration of D-luciferin potassium salt. […] All readings were recorded on a Perkin Elmer Plate reader. […]

The target in data set [4] is T3, native HRPC (un-fused horseradish peroxidase isoenzyme C) (horseradish, UniProt P00433 31-338).
T3 sequence (looked up): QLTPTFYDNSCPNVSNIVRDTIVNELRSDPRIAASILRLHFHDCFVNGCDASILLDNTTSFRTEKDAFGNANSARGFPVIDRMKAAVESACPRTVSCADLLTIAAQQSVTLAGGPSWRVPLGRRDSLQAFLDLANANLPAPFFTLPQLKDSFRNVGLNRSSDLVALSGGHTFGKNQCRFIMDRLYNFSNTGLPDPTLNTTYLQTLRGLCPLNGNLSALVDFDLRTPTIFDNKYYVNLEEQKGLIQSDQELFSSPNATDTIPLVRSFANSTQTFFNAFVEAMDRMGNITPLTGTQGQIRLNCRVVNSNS
The data set can be described thus: cell-free encapsulation by pH shift 5.8 to 8; HRPC activity and thermal shift. As for the experimental part:
(§1) With increasing amount of HRPC, denaturation temperature of tES(+)F116H increases. […] Negligible change in the denaturation temperature for 60:10 tES(−)F116H:HRPC indicates unsuccessful encapsulation of HRPC within tES(−)F116H as compared to tES(+)F116H.
(§2) GFP, and HRPC and rLuc activities were determined through fluorescence, colorimetric and luminescence assays, respectively, both from cell lysate and purified proteins. For GFP, fluorescence of tES(+)F116H/tES-GFPuv, tES-GFPuv, and GFPuv was read at 508 nm in a 96-well black polystyrene plate (Fisher Scientific) with excitation wavelength fixed at 395 nm was performed or fluorescence read at 508 nm in a 96-well black polystyrene plate (Fisher Scientific) using supernatant from 10-mg bacterial pellet (induced at 0.8 OD and cultured for 24h). The activity of tES(+)F116H/tES-HRPC, tES-HRPC, and HRPC was assayed using TMB substrate in a 96-well crystal-clear polystyrene plate (Greiner Bio-One). Briefly, fractions were incubated in assay buffer containing 25 mM Tris-HCl pH-8.0, 5 mM CaCl₂, 2.5 μM hemin for 5 mins. […] Absorbance was recorded at 450 nm. […] Following chromatographic purification, equimolar concentrations (500 nM) of purified h6NE-luciferase(+), h6NEluciferase(−), and h6NE-luciferase(+/−) were evaluated for luciferase activity using D-luciferin potassium salt as a substrate.

Data set [5] concerns the target T4, native GFPuv (un-fused) (UniProt P42212 1-238 = GFP).
T4 construct: Any tag on the un-fused protein is not described
As to the kind of experiment: cell-free encapsulation by pH shift 5.8 to 8; GFPuv fluorescence and thermal shift. As for the experimental part: (§3) FIGS. 18A-18D show effect of different molar ratios and charge of tES subunits on native GFPuv encapsulation in vitro. […] With increasing amount of GFPuv, denaturation temperature of tES(+)F116H increases. […] Negligible change in the denaturation temperature for 60:10 tES(−)F116H:GFPuv indicates unsuccessful encapsulation of GFPuv within tES(−)F116H as compared to tES(+)F116H. In 18A+ve control is tES:tES-GFPuv (0.5 μM); −ve control is GFPuv. In 18B+ve controls are tES(+)F116H:tES-GFPuv and tES(−)F116H:tES-GFPuv.
as §2, with “24h).” for “24h). The activity of tES(+)F116H/tES-HRPC, tES-HRPC, and HRPC was assayed using TMB substrate in a 96-well crystal-clear polystyrene plate (Greiner Bio-One). Briefly, fractions were incubated in assay buffer containing 25 mM Tris-HCl pH-8.0, 5 mM CaCl₂, 2.5 μM hemin for 5 mins.”

The target of data set [6] is T4, native GFPuv (un-fused). As to the kind of experiment: cell-free encapsulation by pH shift 5.8 to 8; thermal shift assay. As for the experimental part: as §3
Inclusion body purification protocol is same as herein described. […] Fractions around the eluted peak were collected and their activity analyzed to identify fractions containing the POI.

For data set [7], the target named is T3, native HRPC (un-fused horseradish …). The data set can be described thus: cell-free encapsulation by pH shift 5.8 to 8; SEC fractions' HRPC activity and thermal shift assay. As for the experimental part:
as §1, §2

For the molecule TEVprotease (Sigma), the “TEV protease cleavage, Western blot” value in data set [1] is on record as “the protease cleaved h6NE-GFPuvTEV”.

B1: tES-rLuc (His-tagged AfFtn subunit with truncated C-terminus fused to Renilla luciferase) (other)
chain: T1 chain with K65E, K128E, K131E, A138D
notes: also called tES-rLuc fusion subunit; not shown: N-terminal His-tag from pBAD/HisB; Renilla luciferase (rLuc), a 36 kDa protein from sea pansy, Renilla reniformis
In the case of B1, the “ratio of fusion subunit to encapsulating tES subunits” value in data set [2] is 20 tES subunits per fusion subunit.

B2: tES(+)F116H (other)
chain: T1 chain with F116H
notes: also called F116HAfFtnΔC(+); AfFtn net positive variant subunit with truncation of unstructured C-terminus and F116H mutation
Regarding B2, the binding result (in data set [3]; in data set [4]; with native GFPuv (un-fused) [5]) was “binds” each time.

B3: tES(-)F116H (other)
chain: T1 chain with K65E, F116H, K128E, K131E, A138D
notes: also called AfFtn subunit with truncation of unstructured C-terminus and F116H mutation
Regarding B3, the binding result with native GFPuv (un-fused) [6] was “no binding (tested: 60:10 molar ratio)”; in data set [7] it was “no binding (tested: molar ratios of 60:8 and 60:10)”.

B4: h6NE-HRPC (His-tagged AfFtn subunit with truncated C-terminus fused to horseradish peroxidase isoenzyme C, C-terminal c-Myc epitope) (other)
chain: MASISEKMVEALNRQINAEIYSAYLYLSMASYFDSIGLKGFSNWMRVQWQEELMHAMKMFDFVSERGGRVKLYAVEEPPSEWDSPLAAFEHVYEHEVNVTKRIHELVEMAMQEKDFATYNFLQWYVAEQVEEEASALDIVEKLRLIGEDKRALLFLDKELSLRQTSQLTPTFYDNSCPNVSNIVRDTIVNELRSDPRIAASILRLHFHDCFVNGCDASILLDNTTSFRTEKDAFGNANSARGFPVIDRMKAAVESACPRTVSCADLLTIAAQQSVTLAGGPSWRVPLGRRDSLQAFLDLANANLPAPFFTLPQLKDSFRNVGLNRSSDLVALSGGHTFGKNQCRFIMDRLYNFSNTGLPDPTLNTTYLQTLRGLCPLNGNLSALVDFDLRTPTIFDNKYYVNLEEQKGLIQSDQELFSSPNATDTIPLVRSFANSTQTFFNAFVEAMDRMGNITPLTGTQGQIRLNCRVVNSNS
notes: also called tES-HRPC; tES-HRP; not shown: N-terminal His-tag from pBAD/HisB
B4: the “ratio of fusion subunit to encapsulating tES subunits” value in data set [2] was 19 tES subunits per fusion subunit.
